Data on four substances can be found in patent US20100209422A1.

In assay [1] the target is low-molecular weight (LMW) form of Aβ42 (human). As to the kind of experiment: SPR (BIAcore), antibody immobilized, LMW Aβ42 injected. On the technique in general: In SPR one partner is held on a chip, and binding of the other changes the refractive index at the surface.
Assay [2] deals with protofibrillar (PF) form of Aβ42 (human). As to the kind of experiment: SPR (BIAcore), ratio of PF binding to LMW binding.
The target is the same in assay [3]. As to the kind of experiment: SPR (BIAcore), antibody immobilized, PF Aβ42 injected.

Sequence of low-molecular weight (LMW) form of Aβ42 (human) (peptide, as listed by the source): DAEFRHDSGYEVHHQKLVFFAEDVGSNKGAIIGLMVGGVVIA
Sequence of protofibrillar (PF) form of Aβ42 (human) (peptide, as listed by the source): as above

In turn, 3D6 anti-Aβ antibody returned a BIACORE Binding Analysis LMW in assay [1] of 425. Moreover, the Ratio (PF/LMW) in assay [2] is 0.9. The BIACORE Binding Analysis PF in assay [3] was found to be 403.

With 6E10 (antibody), the BIACORE Binding Analysis LMW in assay [1] turned out to be 400. For the same substance, the Ratio (PF/LMW) in assay [2] amounted to 1.4. In addition, the BIACORE Binding Analysis PF in assay [3] came out at 541.

For 82E1 (antibody), in assay [1], the BIACORE Binding Analysis LMW was 69.9. In addition, in assay [2], the Ratio (PF/LMW) was 1. Further, in assay [3], the BIACORE Binding Analysis PF amounted to 68.4.

monoclonal antibody 4G8: the BIACORE Binding Analysis LMW in assay [1] came to 229. In assay [2], the Ratio (PF/LMW) came to 1.5. This substance had a BIACORE Binding Analysis PF in assay [3] of 340.
